Measurements: paper PMC11969024 (2025)

B1: peptide HD2 (from tick evasin EVA4) / CCL8 (biotinylated, synthetic) (parent complex)
chain 1: EEDDYTAYAPLTCYFT
chain 2: QPDSVSIPITCCFNVINRKIPIQRLESYTRITNIQCPKEAVIFKTKRGKEVCADPKERWVRDSMKHLDQIFQNLKP

Variants of: B1

Row | Variant | enrichment
1 | chain 1 A7L | 0.505 log2 (difference from the parental peptide)
2 | chain 1 A7Y | -0.0899 log2 (difference from the parental peptide)
3 | chain 1 A7Q | 0.712 log2 (difference from the parental peptide)
4 | chain 1 A7G | 0.697 log2 (difference from the parental peptide)
5 | chain 1 A7T | 0.325 log2 (difference from the parental peptide)
6 | chain 1 A7C | -9.36 log2 (difference from the parental peptide)
7 | chain 1 D3H | -2.58 log2 (difference from the parental peptide)
8 | chain 1 D3T | -3.23 log2 (difference from the parental peptide)
9 | chain 1 D3R | -4.97 log2 (difference from the parental peptide)
10 | chain 1 D3S | -2.23 log2 (difference from the parental peptide)
11 | chain 1 D3K | -4.88 log2 (difference from the parental peptide)
12 | chain 1 T6W | -0.802 log2 (difference from the parental peptide)
13 | chain 1 T6H | -0.816 log2 (difference from the parental peptide)
14 | chain 1 T6G | 2.04 log2 (difference from the parental peptide)
15 | chain 1 T6L | -2.32 log2 (difference from the parental peptide)
16 | chain 1 T6F | -4.21 log2 (difference from the parental peptide)
17 | chain 1 T6Y | -0.847 log2 (difference from the parental peptide)
18 | chain 1 T16E | 1.25 log2 (difference from the parental peptide)
19 | chain 1 T16F | 0.115 log2 (difference from the parental peptide)
20 | chain 1 T16M | 0.502 log2 (difference from the parental peptide)
21 | chain 1 T16Q | 1.96 log2 (difference from the parental peptide)
22 | chain 1 T16S | 1.37 log2 (difference from the parental peptide)
23 | chain 1 T16R | 0.603 log2 (difference from the parental peptide)
24 | chain 1 T16L | 0.738 log2 (difference from the parental peptide)
25 | chain 1 L11D | -2.06 log2 (difference from the parental peptide)

Row | Variant | enrichment
26 | chain 1 L11A | 0.754 log2 (difference from the parental peptide)
27 | chain 1 L11C | 1.32 log2 (difference from the parental peptide)
28 | chain 1 L11R | 1.57 log2 (difference from the parental peptide)
29 | chain 1 T12Y | -0.212 log2 (difference from the parental peptide)
30 | chain 1 T12L | 0.285 log2 (difference from the parental peptide)
31 | chain 1 T12C | -5.83 log2 (difference from the parental peptide)
32 | chain 1 T12E | -0.507 log2 (difference from the parental peptide)
33 | chain 1 T12W | -1.55 log2 (difference from the parental peptide)
34 | chain 1 T12Q | 0.904 log2 (difference from the parental peptide)
35 | chain 1 P10W | -8.37 log2 (difference from the parental peptide)
36 | chain 1 P10E | -7.42 log2 (difference from the parental peptide)
37 | chain 1 P10S | -8.71 log2 (difference from the parental peptide)
38 | chain 1 F15D | 0.871 log2 (difference from the parental peptide)
39 | chain 1 F15L | 1.43 log2 (difference from the parental peptide)
40 | chain 1 F15M | 2.61 log2 (difference from the parental peptide)
41 | chain 1 F15Q | 2.57 log2 (difference from the parental peptide)
42 | chain 1 F15A | 2.51 log2 (difference from the parental peptide)
43 | chain 1 F15G | 0.793 log2 (difference from the parental peptide)
44 | chain 1 E1K | -2.59 log2 (difference from the parental peptide)
45 | chain 1 E1S | -0.455 log2 (difference from the parental peptide)
46 | chain 1 E1N | -0.349 log2 (difference from the parental peptide)
47 | chain 1 E1M | -0.394 log2 (difference from the parental peptide)
48 | chain 1 E1F | -2.08 log2 (difference from the parental peptide)
49 | chain 1 E1T | -1.11 log2 (difference from the parental peptide)
50 | chain 1 Y8V | -4.32 log2 (difference from the parental peptide)

Row | Variant | enrichment
51 | chain 1 Y8C | -9.2 log2 (difference from the parental peptide)
52 | chain 1 Y8T | -8 log2 (difference from the parental peptide)
53 | chain 1 Y8I | -8.9 log2 (difference from the parental peptide)
54 | chain 1 E2W | -1.39 log2 (difference from the parental peptide)
55 | chain 1 E2N | -1.75 log2 (difference from the parental peptide)
56 | chain 1 E2K | -2.67 log2 (difference from the parental peptide)
57 | chain 1 Y5V | -3.14 log2 (difference from the parental peptide)
58 | chain 1 Y5F | -0.0383 log2 (difference from the parental peptide)
59 | chain 1 Y5T | -4.38 log2 (difference from the parental peptide)
60 | chain 1 Y5P | -6.25 log2 (difference from the parental peptide)
61 | chain 1 Y5D | -3.76 log2 (difference from the parental peptide)
62 | chain 1 Y5N | -4.9 log2 (difference from the parental peptide)
63 | chain 1 Y14L | 0.559 log2 (difference from the parental peptide)
64 | chain 1 Y14A | -0.507 log2 (difference from the parental peptide)
65 | chain 1 D4Q | -1.83 log2 (difference from the parental peptide)
66 | chain 1 D4M | -3.9 log2 (difference from the parental peptide)
67 | chain 1 D4I | -3.36 log2 (difference from the parental peptide)
68 | chain 1 C13G | -1.56 log2 (difference from the parental peptide)
69 | chain 1 C13E | -4.45 log2 (difference from the parental peptide)
70 | chain 1 C13I | -0.427 log2 (difference from the parental peptide)
71 | chain 1 C13Y | -0.338 log2 (difference from the parental peptide)
72 | chain 1 A9Q | 0.272 log2 (difference from the parental peptide)
73 | chain 1 A9C | -9.61 log2 (difference from the parental peptide)
74 | chain 1 A9Y | -4.23 log2 (difference from the parental peptide)
75 | chain 1 A9K | -1.29 log2 (difference from the parental peptide)
